PMC7255693 (2020)

Tests used:
[1] = target: T1, CapZ peptide (TAMRA-TRTK) 265-276 (Homo sapiens, UniProt P52907, not fully specified); experiment: fluorescence polarization titration
T1 chain: {TAMRA}-TRTKIDWNKILS-NH2

[2] = target: HDM4 peptide (TAMRA-HDM4 25-43) 25-43 (Homo sapiens), O15151

| Binder | Kd [1] [nM] | Kd [2] [nM] |
| --- | --- | --- |
| S100B (protein) SELEKAMVALIDVFHQYSGREGDKHKLKKSELKELINNELSHFLEEIKEQEVVDKVMETLDNDGDGECDFQEFMAFVAMVTTACHEFFEHE | 130 |  |
| S100A1, P23297 (protein) MGSELETAMETLINVFHAHSGKEGDKYKLSKKELKELLQTELSGFLDAQKDVDAVDKVMKELDENGDGEVDFQEYVVLVAALTVACNNFFWENS |  | 3670 |
